Test results reported in PMC9536601 (2022).

Target: human prothrombin (FII) (human, UniProt P00734 44-622, gamma-carboxylated glutamate residues in the Gla domain)
Experiment: SPR

B1: Ad1 hexon, on wild-type human adenovirus type 1 virions (natural protein)
chain: ATPSMMPQWSYMHISGQDASEYLSPGLVQFARATETYFSLNNKFRNPTVAPTHDVTTDRSQRLTLRFIPVDREDTAYSYKARFTLAVGDNRVLDMASTYFDIRGVLDRGPTFKPYSGTAYNALAPKGAPNSCEWEQEEPTQEMAEELEDEEEAEEEEAEEEAEAPQADQKVKKTHVYAQAPLAGEKITANGLQIVSDTQTEGNPVFADPTYQPEPQVGESQWNEAEATASGGRVLKKTTPMKPCYGSYARPTNKNGGQGILVANNQGALESKVEMQFFAPSGTAMNERNAVQPSIVLYSEDVNMETPDTHISYKPSKTDENSKAMLGQQAMPNRPNYIAFRDNFIGLMYYNSTGNMGVLAGQASQLNAVVDLQDRNTELSYQLLLDSIGDRTRYFSMWNQAVDSYDPDVRIIENHGTEDELPNYCFPLGGIGVTDTYQGIKSNGNGNPQNWTKNDDFAARNEIGVGNNFALEINLNANLWRNFLYSNIALYLPDKLKYTPTNVEISPNPNSYDYMNKRVVAPGLVDCYINLGARWSLDYMDNVNPFNHHRNAGLRYRSMLLGNGRYVPFHIQVPQKFFAIKNLLLLPGSYTYEWNFRKDVNMVLQSSLGNDLRVDGASIKFDSICLYATFFPMAHNTASTLEAMLRNDTNDQSFNDYLSAANMLYPIPANATNVPISIPSRNWAAFRGWAFTRLKTKETPSLGSGYDPYYTYSGSIPYLDGTFYLNHTFKKVAITFDSSVSWPGNDRLLTPNEFEIKRSVDGEGYNVAQCNMTKDWFLVQMLANYNIGYQGFYIPESYKDRMYSFFRNFQPMSRQVVDDTKYKDYQQVGILHQHNNSGFVGYLAPTMREGQAYPANFPYPLIGKTAVDSITQKKFLCDRTLWRIPFSSNFMSMGALTDLGQNLLYANSAHALDMTFEVDPMDEPTLLYVLFEVFDVVRVHQPHRGVIETVYLRTPFSAGNATT
- Kd: 5 nM
